Data: article PMC9482650, “Quantitative fragmentomics allow affinity mapping of interactomes” (Nature Communications, 2022)

T1: LIN7B, Q9HAP6
T1 sequence (Q9HAP6 88-185, limits assumed, looked up): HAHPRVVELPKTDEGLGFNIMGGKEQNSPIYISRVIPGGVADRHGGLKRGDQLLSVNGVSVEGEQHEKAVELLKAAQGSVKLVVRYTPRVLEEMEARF

T2: HTRA3, P83110
T2 sequence (P83110 354-453, limits assumed, looked up): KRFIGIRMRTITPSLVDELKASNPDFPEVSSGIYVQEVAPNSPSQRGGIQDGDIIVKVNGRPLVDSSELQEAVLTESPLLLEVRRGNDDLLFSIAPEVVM

T3: PARD3B_1, Q8TEW8
T3 sequence (Q8TEW8 196-299, limits assumed, looked up): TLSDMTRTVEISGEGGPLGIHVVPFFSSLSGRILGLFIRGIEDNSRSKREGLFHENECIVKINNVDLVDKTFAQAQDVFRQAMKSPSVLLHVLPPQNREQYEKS

T4: GRIP1_4, Q9Y3R0
T4 sequence (Q9Y3R0 467-571, limits assumed, looked up): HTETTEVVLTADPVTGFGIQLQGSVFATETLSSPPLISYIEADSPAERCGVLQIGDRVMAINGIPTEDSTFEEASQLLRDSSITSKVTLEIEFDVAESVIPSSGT

T5: RHPN1, Q8TCX5
T5 sequence (Q8TCX5 508-602, limits assumed, looked up): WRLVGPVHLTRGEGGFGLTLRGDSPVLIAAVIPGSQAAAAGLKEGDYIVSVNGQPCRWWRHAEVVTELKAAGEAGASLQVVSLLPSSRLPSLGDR

T6: GRIP1_2, Q9Y3R0
T6 sequence (Q9Y3R0 145-248, limits assumed, looked up): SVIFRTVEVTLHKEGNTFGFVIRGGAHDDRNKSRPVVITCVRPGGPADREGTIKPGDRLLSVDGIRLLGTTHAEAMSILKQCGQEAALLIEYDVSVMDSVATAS

T7: DFNB31_2, Q9P202
T7 sequence (Q9P202 274-371, limits assumed, looked up): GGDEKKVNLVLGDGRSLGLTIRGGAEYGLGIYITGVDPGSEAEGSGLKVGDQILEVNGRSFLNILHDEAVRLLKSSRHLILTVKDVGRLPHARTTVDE

T8: MPDZ_10, O75970
T8 sequence (O75970 1624-1722, limits assumed, looked up): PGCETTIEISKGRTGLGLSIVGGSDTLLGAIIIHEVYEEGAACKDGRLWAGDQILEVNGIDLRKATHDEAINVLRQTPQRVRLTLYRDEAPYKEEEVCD

T9: SYNJ2BP, P57105
T9 sequence (P57105 8-110, limits assumed, looked up): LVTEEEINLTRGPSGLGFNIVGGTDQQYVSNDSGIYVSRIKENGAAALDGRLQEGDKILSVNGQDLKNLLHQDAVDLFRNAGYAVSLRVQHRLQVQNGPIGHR

T10: DLG3_2, Q92796
T10 sequence (Q92796 221-321, limits assumed, looked up): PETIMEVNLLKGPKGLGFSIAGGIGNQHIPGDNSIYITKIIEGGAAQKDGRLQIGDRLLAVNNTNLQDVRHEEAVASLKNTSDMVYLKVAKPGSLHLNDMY

T11: PTPN13_1, Q12923
T11 sequence (Q12923 1088-1188, limits assumed, looked up): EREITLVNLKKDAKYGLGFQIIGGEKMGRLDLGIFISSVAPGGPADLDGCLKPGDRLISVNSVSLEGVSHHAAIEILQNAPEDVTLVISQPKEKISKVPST

T12: DLG3_3, Q92796
T12 sequence (Q92796 374-475, limits assumed, looked up): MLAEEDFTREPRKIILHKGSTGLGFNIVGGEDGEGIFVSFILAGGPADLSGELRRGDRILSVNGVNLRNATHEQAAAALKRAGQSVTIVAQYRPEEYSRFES


How the values were obtained:
Assay in all cases: holdup assay
Design in all cases: key: below the threshold = too weak to quantify, mostly under pKd 3.1 to 4
Settings in all cases: plain residues with an end cap or a label only (N-terminal biotin on a linker: ado-ado)
Inadl_5, Q8NI35 = molecular target: Inadl_5, Q8NI35
Inadl_5, Q8NI35, sequence (Q8NI35 673-780): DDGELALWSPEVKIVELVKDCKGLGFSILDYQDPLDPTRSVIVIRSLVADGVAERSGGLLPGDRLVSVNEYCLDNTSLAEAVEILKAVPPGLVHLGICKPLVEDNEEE

LIN7B, Q9HAP6 = molecular target: T1, LIN7B, Q9HAP6
HTRA3, P83110 = molecular target: T2, HTRA3, P83110
TJP1_3, Q07157 = molecular target: TJP1_3, Q07157
TJP1_3, Q07157, sequence (Q07157 416-512): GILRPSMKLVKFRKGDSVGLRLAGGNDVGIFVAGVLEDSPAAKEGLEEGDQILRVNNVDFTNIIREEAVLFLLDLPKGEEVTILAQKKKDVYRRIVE

PARD3B_1, Q8TEW8 = molecular target: T3, PARD3B_1, Q8TEW8
GRIP1_4, Q9Y3R0 = molecular target: T4, GRIP1_4, Q9Y3R0
RHPN1, Q8TCX5 = molecular target: T5, RHPN1, Q8TCX5
Inadl_9, Q8NI35 = molecular target: Inadl_9, Q8NI35
Inadl_9, Q8NI35, sequence (Q8NI35 1530-1615): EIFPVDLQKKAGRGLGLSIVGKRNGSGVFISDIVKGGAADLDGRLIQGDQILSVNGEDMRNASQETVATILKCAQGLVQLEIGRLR

DLG2_2, Q15700 = molecular target: DLG2_2, Q15700
DLG2_2, Q15700, sequence (Q15700 189-283): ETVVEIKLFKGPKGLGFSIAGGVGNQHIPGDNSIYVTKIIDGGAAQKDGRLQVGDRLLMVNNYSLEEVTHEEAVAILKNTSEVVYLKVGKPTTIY

GRIP1_2, Q9Y3R0 = molecular target: T6, GRIP1_2, Q9Y3R0
LAP2, Q96RT1 = molecular target: LAP2, Q96RT1
LAP2, Q96RT1, sequence (Q96RT1 other isoform, or with tags, fused parts or gaps): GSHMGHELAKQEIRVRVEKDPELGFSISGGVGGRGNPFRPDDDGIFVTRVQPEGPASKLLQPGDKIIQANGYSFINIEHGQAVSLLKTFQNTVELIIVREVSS

DFNB31_2, Q9P202 = molecular target: T7, DFNB31_2, Q9P202
Inadl_10, Q8NI35 = molecular target: Inadl_10, Q8NI35
Inadl_10, Q8NI35, sequence (Q8NI35 1673-1763): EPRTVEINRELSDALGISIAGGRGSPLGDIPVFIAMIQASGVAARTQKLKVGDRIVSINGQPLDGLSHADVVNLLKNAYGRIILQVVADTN

GORASP2, Q9H8Y8 = molecular target: GORASP2, Q9H8Y8
DLG4_2, P78352 = molecular target: DLG4_2, P78352
DLG4_2, P78352, sequence (P78352 155-259): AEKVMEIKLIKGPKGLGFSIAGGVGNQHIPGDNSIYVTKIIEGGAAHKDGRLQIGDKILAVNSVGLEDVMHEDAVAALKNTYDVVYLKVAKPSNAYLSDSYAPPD

MPDZ_10, O75970 = molecular target: T8, MPDZ_10, O75970
TJP2_1, Q9UDY2 = molecular target: TJP2_1, Q9UDY2
TJP2_1, Q9UDY2, sequence (Q9UDY2 24-128): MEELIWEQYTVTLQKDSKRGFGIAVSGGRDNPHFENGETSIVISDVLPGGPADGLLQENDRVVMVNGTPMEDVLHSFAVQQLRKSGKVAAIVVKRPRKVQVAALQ

SYNJ2BP, P57105 = molecular target: T9, SYNJ2BP, P57105
DLG3_2, Q92796 = molecular target: T10, DLG3_2, Q92796
IL16_1, Q14005 = molecular target: IL16_1, Q14005
IL16_1, Q14005, sequence (Q14005 210-306): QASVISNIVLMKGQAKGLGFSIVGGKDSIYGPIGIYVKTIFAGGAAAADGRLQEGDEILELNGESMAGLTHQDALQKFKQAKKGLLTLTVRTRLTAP

PTPN13_1, Q12923 = molecular target: T11, PTPN13_1, Q12923
HTRA1, Q92743 = molecular target: HTRA1, Q92743
HTRA1, Q92743, sequence (Q92743 360-477): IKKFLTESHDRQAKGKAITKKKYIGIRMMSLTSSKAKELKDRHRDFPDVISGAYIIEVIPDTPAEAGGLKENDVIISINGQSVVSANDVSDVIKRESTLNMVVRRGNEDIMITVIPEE

NHERF4_4, Q86UT5 = molecular target: NHERF4_4, Q86UT5
NHERF4_4, Q86UT5, sequence (Q86UT5 464-550): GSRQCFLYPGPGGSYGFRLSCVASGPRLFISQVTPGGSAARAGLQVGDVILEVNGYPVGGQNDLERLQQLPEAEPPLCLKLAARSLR

NOS1, P29475 = molecular target: NOS1, P29475
NOS1, P29475, sequence (P29475 9-101): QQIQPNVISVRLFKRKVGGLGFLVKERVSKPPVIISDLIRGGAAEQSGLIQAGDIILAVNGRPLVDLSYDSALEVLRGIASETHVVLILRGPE

DLG3_3, Q92796 = molecular target: T12, DLG3_3, Q92796

Binder | pKd (Inadl_5, Q8NI35) | pKd (LIN7B, Q9HAP6) | pKd (HTRA3, P83110) | pKd (TJP1_3, Q07157) | pKd (PARD3B_1, Q8TEW8) | pKd (GRIP1_4, Q9Y3R0) | pKd (RHPN1, Q8TCX5) | pKd (Inadl_9, Q8NI35) | pKd (DLG2_2, Q15700) | pKd (GRIP1_2, Q9Y3R0) | pKd (LAP2, Q96RT1) | pKd (DFNB31_2, Q9P202) | pKd (Inadl_10, Q8NI35) | pKd (GORASP2, Q9H8Y8) | pKd (DLG4_2, P78352) | pKd (MPDZ_10, O75970) | pKd (TJP2_1, Q9UDY2) | pKd (SYNJ2BP, P57105) | pKd (DLG3_2, Q92796) | pKd (IL16_1, Q14005) | also measured
GQNMTVSVVI [PRLHR, P49683] | below the threshold | 3.79 | 3.72 | below the threshold | 4.86 | below the threshold | below the threshold | below the threshold | below the threshold | below the threshold | below the threshold | below the threshold | below the threshold | below the threshold | below the threshold | below the threshold | below the threshold | 3.47 | 4.31 | 3.81 | pKd (PTPN13_1, Q12923): below the threshold; pKd (HTRA1, Q92743): 4.82; pKd (NHERF4_4, Q86UT5): 3.97; pKd (NOS1, P29475): 3.82; pKd (DLG3_3, Q92796): below the threshold
DLLGGGSDSI [TNRC6B, Q9UPQ9] | below the threshold | 3.61 | below the threshold | below the threshold | below the threshold | below the threshold | 3.79 | below the threshold | below the threshold | below the threshold | below the threshold | below the threshold | below the threshold | below the threshold | 3.5 | below the threshold | below the threshold | below the threshold | 3.99 | below the threshold | pKd (PTPN13_1, Q12923): below the threshold; pKd (HTRA1, Q92743): below the threshold; pKd (NHERF4_4, Q86UT5): below the threshold; pKd (NOS1, P29475): 3.9; pKd (DLG3_3, Q92796): below the threshold
TKEIPNCTSV [SORCS3, Q9UPU3] | below the threshold | below the threshold | 3.52 | below the threshold | below the threshold | below the threshold | 3.81 | 3.7 | 4.1 | below the threshold | 3.98 | below the threshold | 3.95 | 3.75 | 4.28 | 3.83 | below the threshold | 4.72 | 4.22 | below the threshold | pKd (PTPN13_1, Q12923): below the threshold; pKd (HTRA1, Q92743): 3.82; pKd (NHERF4_4, Q86UT5): 4.05; pKd (NOS1, P29475): 3.57; pKd (DLG3_3, Q92796): 4
IKLETKKTKL [SLC15A2, Q16348] | 3.48 | below the threshold | below the threshold | 3.54 | 3.77 | below the threshold | 3.76 | below the threshold | 3.66 | below the threshold | below the threshold | 3.55 | below the threshold | below the threshold | 3.87 | below the threshold | 3.85 | below the threshold | below the threshold | below the threshold | pKd (PTPN13_1, Q12923): 3.56; pKd (HTRA1, Q92743): below the threshold; pKd (NHERF4_4, Q86UT5): below the threshold; pKd (NOS1, P29475): 3.61; pKd (DLG3_3, Q92796): 3.81
NSTHNLKDYV [CLDN20, P56880] | below the threshold | below the threshold | 3.97 | below the threshold | below the threshold | below the threshold | below the threshold | 3.66 | below the threshold | below the threshold | below the threshold | below the threshold | below the threshold | below the threshold | below the threshold | below the threshold | 3.8 | below the threshold | below the threshold | below the threshold | pKd (PTPN13_1, Q12923): below the threshold; pKd (HTRA1, Q92743): 3.64; pKd (NHERF4_4, Q86UT5): below the threshold; pKd (NOS1, P29475): 3.58; pKd (DLG3_3, Q92796): below the threshold
QLKSGRDSTV [TMEM178A, Q8NBL3] | 3.58 | below the threshold | below the threshold | 3.5 | below the threshold | 3.56 | 4.06 | 3.52 | 4.4 | below the threshold | 3.63 | 3.52 | below the threshold | below the threshold | 4.61 | 3.63 | below the threshold | 4.48 | 4.35 | below the threshold | pKd (PTPN13_1, Q12923): 3.57; pKd (HTRA1, Q92743): 4.4; pKd (NHERF4_4, Q86UT5): 3.74; pKd (NOS1, P29475): 3.52; pKd (DLG3_3, Q92796): 3.66
